This passage reports Kd results from article PMC3969221 (2014).

By Kd is commonly meant the equilibrium constant for the complex coming apart. The low end stands for a tighter complex, the high end for a looser complex.

The target in this assay is Cry1AbMod protoxin (Bacillus thuringiensis, UniProt P0A370 1-1155). Description: ELISA. On the technique in general: ELISA stands for enzyme-linked immunosorbent assay.

B1: Manduca sexta cadherin protein fragment (CR7–CR12) (domain or fragment)
chain: MIDFLTGQISVNTSGAIDADTPPRFHLYYTVVASDRCSTEDPADCPPDPTYWETEGNITIHITDTNNKVPQAETTKFDTVVYIYENATHLDEVVTLIASDLDRDEIYHTVSYVINYAVNPRLMNFFSVNRETGLVYVDYETQGSGEVLDRDGDEPTHRIFFNLIDNFMGEGEGNRNQNDTEVLVILLDVNDNAPELPPPSELSWTISENLKQGVRLEPHIFAPDRDEPDTDNSRVGYEILNLSTERDIEVPELFVMIQIANVTGELETAMDLKGYWGTYAIHIRAFDHGIPQMSMNETYELIIHPFNYYAPEFVFPTNDAVIRLARERAVINGVLATVNGEFLERISATDPDGLHAGVVTFQVVGDEESQRYFQVVNDGENLGSLRLLQAVPEEIREFRITIRATDQGTDPGPLSTDMTFRVVFVPTQGEPRFASSEHAVAFIEKSAGMEESHQLPLAQDIKNHLCEDDCHSIYYRIIDGNSEGHFGLDPVRNRLFLKKELIREQSASHTLQVAASNSPDGGIPLPASILTVTVTVREADPRPVFVRELYTAGISTADSIGRELLRLHATQSEGSAITYAIDYDTMVVDPSLEAVRQSAFVLNAQTGVLTLNIQPTATMHGLFKFEVTATDTAGAQDRTDVTVYVVSSQNRVYFVFVNTLQQVEDNRDFIA
In turn, B1 returned a Kd of 6.8 nM.
